Holding throughout (assay type): biochemical, bovine
Substrate in series [1]: COc1cc(C(O)CN)ccc1O
In words: Non-immobilized PNMT activity assay, batch incubation with HPLC-fluorescence analysis. The settings on record: other: non-immobilized PNMT; 37.0 °C.

Substrate in series [2]: COc1cc(C(O)CN)ccc1O
In words: PNMT immobilized on Glut-P stationary phase (PNMT-SP), batch assay. Conditions: other: PNMT-SP, Table 5; pH 8.3; 37.0 °C.

Substrate in series [3]: COc1cc(C(O)CN)ccc1O
In words: On-line PNMT immobilized enzyme reactor (PNMT-IMER) HPLC system. Conditions: other: PNMT-IMER, 0.2 ml/min, contact time 20 min, 37° C., n = 2, pH 8.3.

B1: phenylethanolamine N-methyltransferase (PNMT), non-immobilized (Bos taurus) (protein)
chain: MSGTDRSQAAGAVPDSDPGLAAVSSAYQRFEPRAYLRNNYAPPRGDLSCPDGVGPWKLRCLAQTFATGEVSGRTLIDIGSGPTIYQLLSACAHFEDITMTDFLEVNRQELRLWLREEPGAFDWSVYSQHVCLIEGKGESWQEKECQLRARVKRILPIDVHRPQPLGAGGLAPLPADALVSAFCLEAVSPDLASFQRALDHITTLLRPGGHLLLIGALEESWYLAGEARLAVVPVREEEVREALVRTATRCGICARTPMPAHLQTGVDDVKGIFFTRAQKKVGV
On to B1, for which the Km in series [1] is 109 µM.

B2: PNMT-Glut-P stationary phase (PNMT-SP) (Bos taurus) (protein)
chain: MSGTDRSQAAGAVPDSDPGLAAVSSAYQRFEPRAYLRNNYAPPRGDLSCPDGVGPWKLRCLAQTFATGEVSGRTLIDIGSGPTIYQLLSACAHFEDITMTDFLEVNRQELRLWLREEPGAFDWSVYSQHVCLIEGKGESWQEKECQLRARVKRILPIDVHRPQPLGAGGLAPLPADALVSAFCLEAVSPDLASFQRALDHITTLLRPGGHLLLIGALEESWYLAGEARLAVVPVREEEVREALVRTATRCGICARTPMPAHLQTGVDDVKGIFFTRAQKKVGV
In the case of B2, the Km in series [2] stood at 152 µM.

B3: PNMT-IMER (immobilized phenylethanolamine N-methyltransferase) (Bos taurus) (protein)
chain: MSGTDRSQAAGAVPDSDPGLAAVSSAYQRFEPRAYLRNNYAPPRGDLSCPDGVGPWKLRCLAQTFATGEVSGRTLIDIGSGPTIYQLLSACAHFEDITMTDFLEVNRQELRLWLREEPGAFDWSVYSQHVCLIEGKGESWQEKECQLRARVKRILPIDVHRPQPLGAGGLAPLPADALVSAFCLEAVSPDLASFQRALDHITTLLRPGGHLLLIGALEESWYLAGEARLAVVPVREEEVREALVRTATRCGICARTPMPAHLQTGVDDVKGIFFTRAQKKVGV
Turning to B3, in series [3], the Km came out at 384 µM.
